Here are results for 1 substance from paper PMC12496170.

The test addresses Spike-Accum bioconjugate (Accum-bioconjugated Sp protein) (SARS-CoV-2) (UniProt P0DTC2). Nature of the test: cryo-EM structure.

The stoichiometry N is a count of units in the complex or per binding partner. “Spike-Accum bioconjugate (Accum-bioconjugated Sp protein) (from UniProt P0DTC2 14-1213)” displayed a stoichiometry N of 3.
